According to the supplement of paper PMC9112550, “Optimization of the antimicrobial peptide Bac7 by deep mutational scanning” (BMC Biology, 2022):
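Note: peptides expressed intracellularly from a pBAD plasmid library in pooled LB shake-flask culture, induced with 0.3% L-arabinose, DNA abundance read by NGS, three biological replicates, DESeq2 with apeglm shrinkage.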

Each sequence was assayed on Escherichia coli TOP10 (assay: shrunken log2 fold change of peptide-encoding DNA abundance (4.5 h post-induction vs induction); higher = less antimicrobial activity (less host growth inhibition)). Settings: time post-induction: 4.5 h; library: site-saturation at positions 5, 18, 19, 20.
With RRIRVRPPRLPRPRPRPVQPPRP the “shrunken log2 fold change” value was 0.114.
With RRIRPRPPRLPRPRPRPSNDPRP the “shrunken log2 fold change” value was -0.288.
RRIRTRPPRLPRPRPRPFRGPRP was tested, and the “shrunken log2 fold change” value was -0.175.
For RRIRDRPPRLPRPRPRPVVNPRP, the “shrunken log2 fold change” value was 0.24.
For RRIRRRPPRLPRPRPRPCDLPRP, the “shrunken log2 fold change” value was 0.0275.
For RRIRMRPPRLPRPRPRPDAQPRP, the “shrunken log2 fold change” value was 2.65.
In the case of RRIRTRPPRLPRPRPRPRYFPRP, the “shrunken log2 fold change” value is reported as -0.429.
With RRIRDRPPRLPRPRPRPPHGPRP the “shrunken log2 fold change” value was 0.294.
For RRIRFRPPRLPRPRPRPDTYPRP, the “shrunken log2 fold change” value was -0.221.
With RRIRPRPPRLPRPRPRPMTTPRP the “shrunken log2 fold change” value was -0.104.
In the case of RRIRERPPRLPRPRPRPSLLPRP, the “shrunken log2 fold change” value is reported as -0.208.
With RRIRLRPPRLPRPRPRPKYLPRP the “shrunken log2 fold change” value was -0.55.
With RRIRGRPPRLPRPRPRPLGYPRP the “shrunken log2 fold change” value was 0.885.
In the case of RRIRPRPPRLPRPRPRPENHPRP, the “shrunken log2 fold change” value is reported as -0.0822.
RRIRSRPPRLPRPRPRPQGYPRP was tested, and the “shrunken log2 fold change” value was -0.139.
For RRIRFRPPRLPRPRPRPDNGPRP, the “shrunken log2 fold change” value was -0.13.
With RRIRKRPPRLPRPRPRPICMPRP the “shrunken log2 fold change” value was 0.0199.
For RRIRSRPPRLPRPRPRPETTPRP, the “shrunken log2 fold change” value was 0.461.
With RRIRMRPPRLPRPRPRPGEHPRP the “shrunken log2 fold change” value was 0.987.
For RRIRGRPPRLPRPRPRPPIPPRP, the “shrunken log2 fold change” value was 0.449.
For RRIRYRPPRLPRPRPRPNMMPRP, the “shrunken log2 fold change” value was -0.645.
With RRIRKRPPRLPRPRPRPNEMPRP the “shrunken log2 fold change” value was 0.0671.
In the case of RRIRVRPPRLPRPRPRPDGIPRP, the “shrunken log2 fold change” value is reported as -0.173.
In the case of RRIRKRPPRLPRPRPRPKQAPRP, the “shrunken log2 fold change” value is reported as 0.00509.
For RRIRMRPPRLPRPRPRPSYKPRP, the “shrunken log2 fold change” value was -0.296.
RRIRERPPRLPRPRPRPRPCPRP was tested, and the “shrunken log2 fold change” value was -0.0205.
RRIRHRPPRLPRPRPRPSFFPRP was tested, and the “shrunken log2 fold change” value was -0.41.
RRIRDRPPRLPRPRPRPGTTPRP was tested, and the “shrunken log2 fold change” value was 0.427.
For RRIRERPPRLPRPRPRPTGRPRP, the “shrunken log2 fold change” value was -0.146.
For RRIRMRPPRLPRPRPRPMNPPRP, the “shrunken log2 fold change” value was 0.12.
For RRIRGRPPRLPRPRPRPDIAPRP, the “shrunken log2 fold change” value was 0.782.
In the case of RRIRIRPPRLPRPRPRPPEMPRP, the “shrunken log2 fold change” value is reported as -0.291.
With RRIRLRPPRLPRPRPRPHCLPRP the “shrunken log2 fold change” value was -0.0829.
For RRIRLRPPRLPRPRPRPKKVPRP, the “shrunken log2 fold change” value was -0.0117.
In the case of RRIRLRPPRLPRPRPRPSQSPRP, the “shrunken log2 fold change” value is reported as -0.511.
For RRIRMRPPRLPRPRPRPKFAPRP, the “shrunken log2 fold change” value was 0.51.
RRIRPRPPRLPRPRPRPQCRPRP was tested, and the “shrunken log2 fold change” value was 0.00385.
In the case of RRIRERPPRLPRPRPRPCSNPRP, the “shrunken log2 fold change” value is reported as 0.0168.
For RRIRMRPPRLPRPRPRPDKDPRP, the “shrunken log2 fold change” value was 1.24.
In the case of RRIRWRPPRLPRPRPRPWGCPRP, the “shrunken log2 fold change” value is reported as 0.423.
With RRIRVRPPRLPRPRPRPRCWPRP the “shrunken log2 fold change” value was 0.294.
In the case of RRIRDRPPRLPRPRPRPGSYPRP, the “shrunken log2 fold change” value is reported as -0.0689.
RRIRWRPPRLPRPRPRPQRAPRP was tested, and the “shrunken log2 fold change” value was 0.66.
In the case of RRIRTRPPRLPRPRPRPLCEPRP, the “shrunken log2 fold change” value is reported as -0.0895.
RRIRWRPPRLPRPRPRPATVPRP was tested, and the “shrunken log2 fold change” value was 0.111.
RRIRTRPPRLPRPRPRPVSMPRP was tested, and the “shrunken log2 fold change” value was -0.812.
RRIRIRPPRLPRPRPRPTRFPRP was tested, and the “shrunken log2 fold change” value was 0.04.
With RRIRCRPPRLPRPRPRPGWRPRP the “shrunken log2 fold change” value was 0.331.
In the case of RRIRHRPPRLPRPRPRPQLVPRP, the “shrunken log2 fold change” value is reported as -0.0576.
In the case of RRIRLRPPRLPRPRPRPIYCPRP, the “shrunken log2 fold change” value is reported as -0.527.
In the case of RRIRERPPRLPRPRPRPRTWPRP, the “shrunken log2 fold change” value is reported as -0.149.
With RRIRVRPPRLPRPRPRPFAAPRP the “shrunken log2 fold change” value was 0.15.
In the case of RRIRQRPPRLPRPRPRPPFGPRP, the “shrunken log2 fold change” value is reported as 0.219.
With RRIRERPPRLPRPRPRPLLMPRP the “shrunken log2 fold change” value was 0.0107.
For RRIRLRPPRLPRPRPRPSEEPRP, the “shrunken log2 fold change” value was -0.0637.
RRIRIRPPRLPRPRPRPIAKPRP was tested, and the “shrunken log2 fold change” value was -0.0645.
In the case of RRIRPRPPRLPRPRPRPCLQPRP, the “shrunken log2 fold change” value is reported as -0.631.
With RRIRGRPPRLPRPRPRPTNWPRP the “shrunken log2 fold change” value was 0.485.
In the case of RRIRKRPPRLPRPRPRPTADPRP, the “shrunken log2 fold change” value is reported as 0.345.
For RRIRWRPPRLPRPRPRPRNRPRP, the “shrunken log2 fold change” value was -0.0206.
RRIRTRPPRLPRPRPRPRRQPRP was tested, and the “shrunken log2 fold change” value was -0.0389.
For RRIRWRPPRLPRPRPRPWKQPRP, the “shrunken log2 fold change” value was 0.296.
With RRIRGRPPRLPRPRPRPDIHPRP the “shrunken log2 fold change” value was 0.439.
RRIRFRPPRLPRPRPRPGKGPRP was tested, and the “shrunken log2 fold change” value was -0.159.
For RRIRERPPRLPRPRPRPCYIPRP, the “shrunken log2 fold change” value was -0.0464.
In the case of RRIRFRPPRLPRPRPRPQKEPRP, the “shrunken log2 fold change” value is reported as 0.172.
RRIRCRPPRLPRPRPRPDGYPRP was tested, and the “shrunken log2 fold change” value was -0.0404.
With RRIRSRPPRLPRPRPRPPLAPRP the “shrunken log2 fold change” value was 0.812.
In the case of RRIRKRPPRLPRPRPRPQASPRP, the “shrunken log2 fold change” value is reported as 0.353.
RRIRKRPPRLPRPRPRPPTYPRP was tested, and the “shrunken log2 fold change” value was 0.0129.
With RRIRMRPPRLPRPRPRPTQFPRP the “shrunken log2 fold change” value was 0.178.
RRIRDRPPRLPRPRPRPHACPRP was tested, and the “shrunken log2 fold change” value was 0.00242.
In the case of RRIRMRPPRLPRPRPRPECNPRP, the “shrunken log2 fold change” value is reported as 0.0477.
RRIRGRPPRLPRPRPRPLTFPRP was tested, and the “shrunken log2 fold change” value was 0.077.
RRIRFRPPRLPRPRPRPFYFPRP was tested, and the “shrunken log2 fold change” value was -0.681.
RRIRERPPRLPRPRPRPAAWPRP was tested, and the “shrunken log2 fold change” value was 0.443.
With RRIRMRPPRLPRPRPRPTNEPRP the “shrunken log2 fold change” value was 0.282.
For RRIRARPPRLPRPRPRPPHNPRP, the “shrunken log2 fold change” value was 0.757.
With RRIRFRPPRLPRPRPRPNHKPRP the “shrunken log2 fold change” value was -0.405.
For RRIRMRPPRLPRPRPRPNWVPRP, the “shrunken log2 fold change” value was -0.0816.
With RRIRCRPPRLPRPRPRPAEAPRP the “shrunken log2 fold change” value was 0.12.
For RRIRQRPPRLPRPRPRPVPLPRP, the “shrunken log2 fold change” value was 0.0148.
With RRIRGRPPRLPRPRPRPTDKPRP the “shrunken log2 fold change” value was 0.705.
With RRIRQRPPRLPRPRPRPATGPRP the “shrunken log2 fold change” value was 0.0181.
For RRIRPRPPRLPRPRPRPVNNPRP, the “shrunken log2 fold change” value was -0.525.
With RRIRYRPPRLPRPRPRPCKYPRP the “shrunken log2 fold change” value was -0.627.
RRIRGRPPRLPRPRPRPYLNPRP was tested, and the “shrunken log2 fold change” value was -0.233.
In the case of RRIRGRPPRLPRPRPRPTTEPRP, the “shrunken log2 fold change” value is reported as 0.836.
For RRIRIRPPRLPRPRPRPTRCPRP, the “shrunken log2 fold change” value was 0.33.
With RRIRFRPPRLPRPRPRPLESPRP the “shrunken log2 fold change” value was -0.00313.
With RRIRTRPPRLPRPRPRPHWGPRP the “shrunken log2 fold change” value was 0.229.
For RRIRKRPPRLPRPRPRPYQLPRP, the “shrunken log2 fold change” value was -0.0193.
RRIRGRPPRLPRPRPRPRKWPRP was tested, and the “shrunken log2 fold change” value was 0.413.
RRIRMRPPRLPRPRPRPNMWPRP was tested, and the “shrunken log2 fold change” value was 0.0353.
RRIRHRPPRLPRPRPRPTCCPRP was tested, and the “shrunken log2 fold change” value was -0.125.
RRIRERPPRLPRPRPRPTRRPRP was tested, and the “shrunken log2 fold change” value was 0.059.
RRIRSRPPRLPRPRPRPEEVPRP was tested, and the “shrunken log2 fold change” value was 0.0829.
With RRIRARPPRLPRPRPRPSRSPRP the “shrunken log2 fold change” value was 0.349.
RRIRQRPPRLPRPRPRPGFLPRP was tested, and the “shrunken log2 fold change” value was 0.107.
For RRIRRRPPRLPRPRPRPFVAPRP, the “shrunken log2 fold change” value was 0.354.
For RRIRTRPPRLPRPRPRPHEMPRP, the “shrunken log2 fold change” value was 0.0124.
In the case of RRIRKRPPRLPRPRPRPIIVPRP, the “shrunken log2 fold change” value is reported as 0.0373.
In the case of RRIRWRPPRLPRPRPRPNPAPRP, the “shrunken log2 fold change” value is reported as 0.098.
In the case of RRIRYRPPRLPRPRPRPGWRPRP, the “shrunken log2 fold change” value is reported as 0.386.
RRIRWRPPRLPRPRPRPYWRPRP was tested, and the “shrunken log2 fold change” value was 0.00194.
In the case of RRIRGRPPRLPRPRPRPWFLPRP, the “shrunken log2 fold change” value is reported as -0.149.
In the case of RRIRMRPPRLPRPRPRPGMDPRP, the “shrunken log2 fold change” value is reported as 0.32.
With RRIRVRPPRLPRPRPRPFKPPRP the “shrunken log2 fold change” value was -0.132.
With RRIRLRPPRLPRPRPRPHMAPRP the “shrunken log2 fold change” value was 0.0118.
For RRIRVRPPRLPRPRPRPITMPRP, the “shrunken log2 fold change” value was -0.432.
In the case of RRIRGRPPRLPRPRPRPGFTPRP, the “shrunken log2 fold change” value is reported as 0.11.
In the case of RRIRNRPPRLPRPRPRPCRGPRP, the “shrunken log2 fold change” value is reported as -0.0345.
In the case of RRIRVRPPRLPRPRPRPWSLPRP, the “shrunken log2 fold change” value is reported as -0.0384.
With RRIRHRPPRLPRPRPRPGLHPRP the “shrunken log2 fold change” value was -0.308.
In the case of RRIRDRPPRLPRPRPRPQQAPRP, the “shrunken log2 fold change” value is reported as 0.0257.
RRIRNRPPRLPRPRPRPAYHPRP was tested, and the “shrunken log2 fold change” value was -0.385.
RRIRHRPPRLPRPRPRPEITPRP was tested, and the “shrunken log2 fold change” value was -0.0206.
With RRIRPRPPRLPRPRPRPIPPPRP the “shrunken log2 fold change” value was -0.0888.
With RRIRVRPPRLPRPRPRPHVVPRP the “shrunken log2 fold change” value was -0.479.
For RRIRIRPPRLPRPRPRPWLHPRP, the “shrunken log2 fold change” value was -0.496.
For RRIRPRPPRLPRPRPRPTGSPRP, the “shrunken log2 fold change” value was 0.146.
For RRIRDRPPRLPRPRPRPVCTPRP, the “shrunken log2 fold change” value was 0.0514.
RRIRKRPPRLPRPRPRPHRVPRP was tested, and the “shrunken log2 fold change” value was 0.34.
For RRIRNRPPRLPRPRPRPAMCPRP, the “shrunken log2 fold change” value was -0.199.
For RRIRPRPPRLPRPRPRPMRHPRP, the “shrunken log2 fold change” value was -0.0129.
